{"source": "patent US20060015952A1", "about": "“Screening assays and methods of tumor treatment” (GENENTECH, INC., priority 2003, published 2006)", "molecules": {"B1": {"name": "V5H.g1L2: Same as Version 5 except the CDR L2 is reverted to human germline kappa locus sequence YASSLQS (antibody, V domains shown)", "VH": "EVQLVESGGGLVQPGGSLRLSCAASGYAFTNYLIEWVRQAPGKGLEWVGVNNPGSGGSNYNEKFKGRATISADNSKNTLYLQMNSLRAEDTAVYYCARSGGFYFDYWGQGTLVTVSS", "VL": "DIQMTQSPSSLSASVGDRVTITCRASQSVLYSSNQKNYLAWYQQKPGKAPKLLIYYASSLQSGVPSRFSGSGSGTDFTLTISSLQPEDFATYYCHQYLSSDTFGQGTKVEIK"}, "B2": {"name": "V5H.g1L1glL2: Same as Version 5 except CDR L1 and CDR L2 reverted to human germline kappa locus sequences (antibody, V domains shown)", "VH": "B1 VH", "VL": "DIQMTQSPSSLSASVGDRVTITCRASQGISSYLAWYQQKPGKAPKLLIYYASSLQSGVPSRFSGSGSGTDFTLTISSLQPEDFATYYCHQYLSSDTFGQGTKVEIK"}, "B3": {"name": "Version 5: humanized 2G7, ArgH71Ala, AlaH49Gly, PheH67Ala; SEQ ID Nos. 3 and 4 (antibody, V domains shown)", "VL": "DIQMTQSPSSLSASVGDRVTITCRASQSVLYSSNQKNYLAWYQQKPGKAPKLLIYWASTRESGVPSRFSGSGSGTDFTLTISSLQPEDFATYYCHQYLSSDTFGQGTKVEIKRTVA", "VH": "EVQLVESGGGLVQPGGSLRLSCAASGYAFTNYLIEWVRQAPGKGLEWVGVNNPGSGGSNYNEKFKGRATISADNSKNTLYLQMNSLRAEDTAVYYCARSGGFYFDYWGQGTLVTVSSASTKGPS", "modifications": "Sequence is synthesized"}}, "key": {"[1]": {"test_system": "TGF-beta1 through -beta3", "test": "3T3 cell proliferation assay, neutralization of TGF-betas", "assay_type": "cell-based, mouse", "conditions": "3T3 cells stimulated with one of three TGF-betas", "description": "Various humanized antibodies were tested for their activity in neutralizing various TGF-betas versus 2G7 using the 3T3 cell line from fibroblasts of disaggregated Swiss mouse embryos stimulated with one of three TGF-betas in vitro and then their proliferation was measured as activity."}, "[2]": {"test_system": "TGF-beta extracellular domain (ECD)", "test": "Binding ELISA of chimeric and humanized 2G7 versions", "conditions": "for binding to TGF-beta of CDR mutants of hu2G7 Version 5 IgG: germline revertants / CDR H2 mutant", "description": "DNA sequencing of the chimeric clone allowed identification of the CDR residues (Kabat et al., supra). Using oligonucleotide site-directed mutagenesis, all six of these CDR regions were introduced into a complete human framework (VL kappa subgroup I and VH subgroup III) contained on plasmid VX4 as previously described (Presta et al., Cancer Research, 57: 4593-4599 (1997)). Protein from the resultant “CDR-swap” was expressed and purified as above. Binding studies were performed to compare the two versions. Briefly, a NUNC MAXISORP™ plate was coated with 1 microgram per ml of TGF-beta extracellular domain (ECD; produced as described in WO 90/14357) in 50 mM of carbonate buffer, pH 9.6, overnight at 4° C., and then blocked with ELISA diluent (0.5% BSA, 0.05% POLYSORBATE™ 20, PBS) at room temperature for 1 hour. Serial dilutions of samples in ELISA diluent were incubated on the plates for 2 hours. After washing, bound Fab fragment was detected with biotinylated murine anti-human kappa antibody (ICN 634771) followed by streptavidin-conjugated horseradish peroxidase (Sigma) and using 3,3′,5,5′-tetramethyl benzidine (Kirkegaard & Perry Laboratories, Gaithersburg, Md.) as substrate. Absorbance was read at 450 nm."}, "[3]": {"test_system": "TGF-beta", "test": "Mouse messangial cell proliferation assay", "assay_type": "cell-based", "conditions": "antibody 20 μg/ml; TGF-beta at 1 ng/ml level; 48 hours", "description": "A mouse messangial cell proliferation assay was used to test a control antibody and several humanized antibodies (V5H.V5L, V5H.gIL2, H2NI.V5L, V5H.gIL1gIL2, and H2N1.gIL gIL2). The protocol is as follows:\nOn day 1: Mouse messangial cells were plated on a 96-well plate in Media (a 3:1 mixture of Dulbecco's modified Eagle's medium and Ham's F12 medium-95%-fetal bovine serum-5%-supplemented with 14 mM HEPES buffer) and grown overnight.\nOn day 2: TGF-beta with three different concentrations (100 ng, 10 ng and 1 ng) and five different types of humanized TGF antibody (20 μg/ml) were diluted in serum-free Media and added to the cells. A mouse TGF antibody was used as a control (2G7).\nOn day 4: After 48 hours incubation, 20 μl of reaction buffer (CELLTITER 96® AQUEOUS ONE SOLUTION REAGENT™ containing a tetrazolium compound 3-(4,5-dimethylthiazol-2-yl)-5-(3-carboxymethoxyphenyl)-2-(4-sulfophenyl)-2H-tetrazolium, inner salt, and an electron coupling reagent (phenazine ethosulfate) (Promega Inc. Cat number G3580)) was added to each well of the plate and allowed to incubate for 2 hours. The absorbance (OD) was measured at 490 nm."}}}
{"molecule": "B1", "values": [{"measurement": "activity in neutralizing TGF-betas versus 2G7", "setting": "[1]", "result": "comparable activity, with V5H.gIL2 being the least effective"}, {"measurement": "binding to TGF-beta of CDR mutants of hu2G7 Version 5 IgG", "setting": "[2]", "result": "bound to TGF-beta as well as V5H.V5L"}]}
{"molecule": "B2", "values": [{"measurement": "binding to TGF-beta of CDR mutants of hu2G7 Version 5 IgG", "setting": "[2]", "result": "did not bind as well as the chimera"}]}
{"molecule": "B3", "values": [{"measurement": "blocking of cell inhibition induced by TGF-beta", "setting": "[3]", "result": "blocked cell inhibition similarly to the control"}, {"measurement": "binding to TGF-beta compared to chimeric 2G7 Fab fragment", "setting": "[2]; humanized versions (FR mutants)", "result": "binding restored to that of the original chimeric 2G7 Fab fragment"}]}
